B1: TPR t1 (parent)
chain: GACCAAUCUGCCCUCAGAGCUCGAGAACAUCUUCGGAUGCAGAGGAGGCAGGCUUCGGUGGCGCGAUAGCGCCAACGUCCUCAACCUCCAAUGCAUCCCACCACAUGAUGAUGCCUGAAGAGCCUUGGUUUUUUG

Variants of: B1
Experiment: polymerase ribozyme fitness, log enrichment relative to wild type (log ratio); higher = more active; in vitro selection for triplet polymerase activity
Outline: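 To select mutant libraries of each subunit of a heterodimeric triplet polymerase ribozyme, built by PCR and transcribed, each was annealed with a biotinylated primer, partner subunit and triplets, then incubated frozen at −7 °C. Extended constructs were gel-excised, captured on streptavidin beads and amplified by RT-PCR, in one round carried out in triplicate. Illumina sequencing of input and output libraries kept genotypes with ≥10 input reads and ≥1 read per output. Fitness is the base-2 logarithm of genotype enrichment relative to wild-type enrichment, from inverse-variance-weighted replicate averages.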

| Variant | polymerase ribozyme fitness (log ratio) |
| --- | --- |
| A2U G47U G61U | -4.48 |
| C3G C12G C40A | -3.27 |
| C3U C11U G42C C56A A74C A105U G120C | -6.23 |
| C3G G36U A83U | -3.46 |
| C3G C73U | -2.12 |
| A2U G36C C82U G113U G135U | -5.19 |
| C3U A91U C115U | -1.86 |
| C3A A37U | -2.19 |
| A2U G69U C102U G113A U129A | -0.898 |
| C3G U14A C20A G42U G61U G117A U131G G135C | -3.96 |
| A2U C64U C124U | -1.49 |
| A2U U130C | -0.66 |
| A2U U9A A26C G60A G117U | -6.53 |
| C3A C115U U125A U129G | -5.92 |
| C3A A75G A111G A118G U129C | -1.7 |
| C3G C8A A37U A111G G120A U125C | -3.58 |
| C3G C49G C72U A91C G128A U130G | -3.78 |
| C3A G71C | -3.03 |
| C3A G69U G71A A75U A103U C124G | -4.96 |
| A2U U59C | -2.87 |
| C3A G36A G71C C123G | -1.87 |

| Variant | polymerase ribozyme fitness (log ratio) |
| --- | --- |
| C3G A27U G52A C72U U129A | -4.63 |
| C3G C40G A121G U130G | 0.237 |
| C3U A46C C56U A121U | 1.54 |
| A2U G42C C72A | -3.5 |
| C3A C11G | -1.08 |
| C3A G57A U92C | -5.31 |
| C3A A6C C12A A50G C56G | -3.05 |
| C3A C8U U59A U87G | -1.65 |
| C3A C102U | -2.94 |
| C3A C4U A46U C114U | -4.9 |
| C3A G51A | -4.19 |
| A2U U21A G36A C56U C114A | -3.98 |
| C3G C15A | -5.49 |
| C3A A43U G60C C82G | -5.1 |
| A2U C101U | -1.78 |
| C3U C8A A16G A43C C79A C88U C124A U125A U132C | -3.17 |
| C3U C8U G61C G120A | 0.504 |
| C3U A27U G61A | -3.78 |
| C3U A27U G61U | -2.61 |
| C3U A6U G45U C72G C79G C114A | -5.66 |
| A2U G45A G69U C124A | -0.409 |

| Variant | polymerase ribozyme fitness (log ratio) |
| --- | --- |
| C3G C11G G19U G120A | -3.18 |
| A2U C53G C76U U125G | -4.01 |
| C3U A46U | -1.57 |
| C3A C53A C73U | -1.17 |
| C3A U7A A121G | 1.21 |
| C3A A41C C80U C123A | -1.77 |
| A2U C70U G128C | -2.25 |
| C3U A6U G48A C115U | -2.28 |
| A2U G52U C53A G63U U132C | -2.74 |
| C3A C4A C40U C104A U112G | -3.41 |
| C3A C40G G48C G77C C124U U133A | -4.13 |
| C3A U21A G120C | -1.39 |
| A2U G127C | -2.05 |
| C3G C72A C94G C124A | -1.46 |
| A2U C56U | -2.27 |
| C3G U7A G63C A95C | -2.41 |
| C3A C20G G60A C79U C98G C99A C123G | -2.5 |
| A2U G77A | -2.8 |
| C3A A111C | -1.17 |
| A2U C53G C56U G69U | -1.92 |
| C3G G128U | -1.24 |

| Variant | polymerase ribozyme fitness (log ratio) |
| --- | --- |
| A2U C56A G63U U106A C115G | -6.59 |
| C3A A29U G61A U130C | -1.93 |
| C3A A50U C80U G120U | -4.64 |
| C3A C34A G45C C114U | -6.33 |
| C3U C11A G47A G110U | -3.77 |
| A2U U38G C70U C98U G128U | -6.66 |
| A2U C73A G120C | -2.28 |
| A2U G19U C70U A121G | -4.27 |
| C3U A37G C49G G69A C73U | -3.7 |
| C3U C4A C53G C62U C88U A90C C123A U130C | -0.74 |
| C3A C8G G63C A95C G117A G128U | -0.17 |
| C3G G39U | -2.39 |
| C3G C11A C12A | -3.85 |
| A2U G44U C70U A90U | -5.08 |
| A2U U9A C11G A24U G36U C56G C123G | -7.43 |
| A2U G61U G113C C114U | -3.06 |
| C3A C12U C102A | -1.7 |
| C3G G47C | -3.72 |
| C3A C89A | -2.07 |
| C3A U9G G61C G113C | -4.85 |

Reference: the RNAGym collection of RNA variant scans (doi:10.1073/pnas.2313332121)
